Source: US20240360228A1 (BIOLEGEND, published 2024)
Positions count from the first letter of the chain named.

B1: AB14 (antibody, V domains shown)
VH: EVQLVESGGGLVQPKGSLKLSCAASGFTFNTYAMNWVRQAPGKGLEWVARIRSKSNNYATYYVDSVKDRFTISRDDSQSMLYLQINNLKTEDTAMYYCVRGRELGPYSAMDYWGQGTSVTVSS
VL: DIVMTQAAPSVPVTPGESVSISCRSSKSLLHSNGNTYLYWFLQRPGQSPQLLIYRMSNLASGVPDRFSGSGSGTAFTLRISRVEAEDVGLYYCMQHLEYPFTFGGGTKLEIK
notes: Hybridoma monoclonal; Same VH/VL entries as AB15; also called antibody 14; clone 14
B2: AB15 (antibody, V domains shown)
VH: B1 VH
VL: B1 VL
notes: Hybridoma monoclonal; Same VH/VL entries as AB14; also called antibody 15; clone 15
B3: AB12 (antibody, V domains shown)
VH: B1 VH with T28A, V48I, I51L, N57F, V63A, I85M, M95V, Y107S, S108Y
VL: B1 VL with L90V, F101Y
notes: Hybridoma monoclonal; also called antibody 12; clone 12
B4: AB1 (antibody, V domains shown)
VH: QVQLKESGPGLVKPSETLSLTCTVSGFSLTSYHISWVRQPPGKGLEWMGVIWGDGSKTYNSALKSRLSISRDTSKSQVFLKMRSLKTEDTATYYCARGGDSGFAYWGQGTLVTVSS
VL: DIQMTQSPASLSASLEEIVTITCQASQDIGNWLSWYQQKPGKSPQLLIYGTTNLADGVPSRFSGSRSGTQYSLKISRLQVEDIGIYYCLQAYSVPLTFGSGTKLEIK
notes: Hybridoma monoclonal (mouse or rat); Same VH/VL entries as AB2; also called antibody 1; clone 1
B5: AB2 (antibody, V domains shown)
VH: B4 VH
VL: B4 VL
notes: Hybridoma monoclonal; Same VH/VL entries as AB1; also called antibody 2; clone 2
B6: AB3 (antibody, V domains shown)
VH: B4 VH with S56K, K57T, R83N
VL: B4 VL
notes: Hybridoma monoclonal; also called antibody 3; clone 3
B7: AB4 (antibody, V domains shown)
VH: B4 VH with S31G, I34V, S56R, K57T, R83S
VL: B4 VL with T51A, N53S, Y71F, S93I, I106S
notes: Hybridoma monoclonal; also called antibody 4; clone 4

Target: T1, human CCR8 (human, UniProt P51685 1-355)
T1 construct: Native CCR8 on human PBMC (CCR8+ CD3+ or CCR8+ CD4+ lymphocytes); also called chemokine (C-C motif) receptor 8
Experiment: flow blocking, PBMC CCR8+CD4+; competitor PE-AB10
Experimental: (§1) For blocking studies, 100 μL of the cell suspension were incubated with 10 μg purified isotype control, AB1, AB2, AB3, AB4, AB5, AB8, AB9, AB10, AB11, AB12, AB13, AB14, AB15, and Commercial ABI antibodies, or isotype control, as blocking agents.
(§2) After incubation with the blocking agent, the cells were incubated with 0.25 μg of the indicated PE-conjugated antibody plus anti-human CD4 APC or anti-human CD3 for another 15 minutes in the dark and then washed 2 times with Cell Staining Buffer, and acquired in a FACSCanto II flow cytometer (BD Biosciences); the data was analyzed using FCS Express (De Novo Software); MFI correspond to the CCR8+ CD4+ lymphocytes or CCR8+ CD3+ lymphocytes.
(§3) Percentage original MFI was calculated by dividing the MFI of samples blocked with AB1, AB2, AB3, AB4, AB5, AB6, AB7, AB8, AB9, AB10, AB11, AB12, AB13, AB14, AB15, and Commercial ABI antibodies, by the MFI of samples blocked with the corresponding isotype control. This value was subtracted from 100 to get a blocking percentage. The formula is shown below: […]

T1 sequence (P51685 whole entry): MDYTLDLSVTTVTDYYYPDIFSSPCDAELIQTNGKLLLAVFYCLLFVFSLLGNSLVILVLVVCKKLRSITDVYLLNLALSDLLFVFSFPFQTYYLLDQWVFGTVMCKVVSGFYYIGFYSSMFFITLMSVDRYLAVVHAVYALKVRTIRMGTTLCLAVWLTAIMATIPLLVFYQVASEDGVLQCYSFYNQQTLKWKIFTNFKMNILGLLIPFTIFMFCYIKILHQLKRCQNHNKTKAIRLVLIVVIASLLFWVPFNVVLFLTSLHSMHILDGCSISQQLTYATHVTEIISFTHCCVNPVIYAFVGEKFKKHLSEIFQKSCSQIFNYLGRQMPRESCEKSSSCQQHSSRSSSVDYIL

Row | % Blocking [%] | % Positive cells [%] | Binder
1 | 96 | 0.06 | B1
2 | 93.2 | 0.1 | B2
3 | 87.8 | 0.18 | B3
4 | 3.38 | 1.43 | B4
5 | 2.7 | 1.44 | B5
6 | -9.46 | 1.62 | B6
7 | 0.68 | 1.47 | B7

Target: T1, human CCR8
Experiment: flow blocking, PBMC CCR8+CD4+; competitor PE-AB3
Experimental: as §1, §2, §3

Row | % Blocking [%] | % Positive cells [%] | Binder
8 | -27.5 | 2.18 | B1
9 | -33.3 | 2.28 | B2
10 | -34.5 | 2.3 | B3
11 | 97.1 | 0.05 | B4
12 | 98.2 | 0.03 | B5
13 | 100 | 0 | B6
14 | 98.2 | 0.03 | B7

Target: T1, human CCR8
Experiment: flow blocking, PBMC CCR8+CD4+; competitor PE-AB13
Experimental: as §1, §2

Row | % Blocking [%] | % Positive cells [%] | Binder
15 | 96 | 0.08 | B1
16 | 91.9 | 0.16 | B2
17 | 98.5 | 0.03 | B3
18 | 10.1 | 1.78 | B4
19 | -6.06 | 2.1 | B5
20 | 21.2 | 1.56 | B6
21 | 21.7 | 1.55 | B7

Target: T1, human CCR8
Experiment: flow blocking, PBMC CCR8+CD4+; competitor PE-AB6
Experimental: as §1, §2

Row | % Blocking [%] | % Positive cells [%] | Binder
22 | -3.47 | 2.09 | B1
23 | -23.8 | 2.5 | B2
24 | -15.3 | 2.33 | B3
25 | 86.6 | 0.27 | B4
26 | 93.6 | 0.13 | B5
27 | 84.7 | 0.31 | B6
28 | 87.1 | 0.26 | B7

Target: T1, human CCR8
Experiment: flow blocking, PBMC CCR8+CD4+; competitor PE-AB2
Experimental: as §1, §2, §3

Row | % Blocking [%] | % Positive cells [%] | Binder
29 | -10.4 | 1.81 | B1
30 | -28.1 | 2.1 | B2
31 | -32.9 | 2.18 | B3
32 | 98.2 | 0.03 | B4
33 | 98.8 | 0.02 | B5
34 | 98.8 | 0.02 | B6
35 | 98.8 | 0.02 | B7

Target: T1, human CCR8
Experiment: flow blocking, PBMC CCR8+CD4+; competitor PE-AB4
Experimental: as §1, §2, §3

Row | % Blocking [%] | % Positive cells [%] | Binder
36 | -10.1 | 1.96 | B1
37 | -1.69 | 1.81 | B2
38 | -33.1 | 2.37 | B3
39 | 96.1 | 0.07 | B4
40 | 96.6 | 0.06 | B5
41 | 93.3 | 0.12 | B6
42 | 94.9 | 0.09 | B7

Target: T1, human CCR8
Experiment: flow blocking, PBMC CCR8+CD4+; competitor PE-AB5
Experimental: as §1, §2, §3

Row | % Blocking [%] | % Positive cells [%] | Binder
43 | 6.93 | 1.88 | B1
44 | -17.8 | 2.38 | B2
45 | -2.48 | 2.07 | B3
46 | 89.6 | 0.21 | B4
47 | 90.1 | 0.2 | B5
48 | 85.2 | 0.3 | B6
49 | 87.1 | 0.26 | B7

Target: T1, human CCR8
Experiment: flow blocking, PBMC CCR8+CD4+; competitor PE-433H
Experimental: as §1, §2

Row | % Blocking [%] | % Positive cells [%] | Binder
50 | 22.7 | 1.36 | B1
51 | 21.6 | 1.38 | B2
52 | 60.2 | 0.7 | B3
53 | 14.8 | 1.5 | B4
54 | 2.84 | 1.71 | B5
55 | 7.39 | 1.63 | B6
56 | 1.14 | 1.74 | B7

Target: T1, human CCR8
Experiment: flow blocking, PBMC CCR8+CD4+; competitor PE-AB14
Experimental: as §1, §2

Row | % Blocking [%] | % Positive cells [%] | Binder
57 | 98.5 | 0.02 | B1
58 | 99.2 | 0.01 | B2
59 | 100 | 0 | B3
60 | 1.54 | 1.28 | B4
61 | -15.4 | 1.5 | B5
62 | -12.3 | 1.46 | B6
63 | -15.4 | 1.5 | B7

Target: T1, human CCR8
Experiment: flow blocking, PBMC CCR8+CD4+; competitor PE-AB12
Experimental: as §1, §2, §3

Row | % Blocking [%] | % Positive cells [%] | Binder
64 | 99.4 | 0.01 | B1
65 | 99.4 | 0.01 | B2
66 | 99.4 | 0.01 | B3
67 | -2.78 | 1.85 | B4
68 | -8.89 | 1.96 | B5
69 | 1.67 | 1.77 | B6
70 | 1.11 | 1.78 | B7

Target: T1, human CCR8
Experiment: flow blocking, PBMC CCR8+CD4+; competitor PE-AB11
Experimental: as §1, §2, §3

Row | % Blocking [%] | % Positive cells [%] | Binder
71 | 98.5 | 0.03 | B1
72 | 85.2 | 0.29 | B2
73 | 99 | 0.02 | B3
74 | -5.61 | 2.07 | B4
75 | -3.57 | 2.03 | B5
76 | 4.59 | 1.87 | B6
77 | 4.59 | 1.87 | B7

Target: T1, human CCR8
Experiment: flow blocking, PBMC CCR8+CD4+; competitor PE-AB1
Experimental: as §1, §2, §3

Row | % Blocking [%] | % Positive cells [%] | Binder
78 | -25.2 | 1.94 | B1
79 | -38.7 | 2.15 | B2
80 | -29.7 | 2.01 | B3
81 | 98.7 | 0.02 | B4
82 | 93.5 | 0.1 | B5
83 | 97.4 | 0.04 | B6
84 | 100 | 0 | B7

Target: T1, human CCR8
Experiment: flow blocking, PBMC CCR8+CD4+; competitor PE-AB15
Experimental: as §1, §2, §3

Row | % Blocking [%] | % Positive cells [%] | Binder
85 | 97.7 | 0.03 | B1
86 | 93.8 | 0.08 | B2
87 | 94.6 | 0.07 | B3
88 | -30.2 | 1.68 | B4
89 | -18.6 | 1.53 | B5
90 | -7.75 | 1.39 | B6
91 | -33.3 | 1.72 | B7
